{"source": "patent US20210061896A1", "about": "(SHANGHAI YILE BIOTECHNOLOGY, published 2021)", "binders": {"B1": {"name": "single-chain antibody 2H8 (scFv)", "scFv": "EVQLVETGGGLVQPGGSLRLSCAASGFTFSSYGMHWVRQAPGKGLEWVSVISGSGDSTYYAESVKGRFTISRDNARNTVYLQMNSLRAEDTAVYYCASGILTGYVFDYWGKGTMVTVSSGGGGSGGGGSGGGGSDVVMTQSPLSLPVTLGQPASISCRSSQSLVSNDGNTYLNWFQQRPGQPPRRLIYMVSKWDSGVPDRFSGSGSGTDFTLRISRVEAEDVGVYYCMQSTHWPPTFGGGTKLEIKR", "notes": "probably a print error; also called 2H8, scFv; pCantab-2H8"}, "B2": {"name": "1D3 monoclonal antibody (antibody, human IgG4, kappa, V domains shown)", "VH": "QVQLVESGGGLIQPGGSMRLSCAASGFSLSGYDMHWVRQIAGKGLEWVAGLGMEGDSYYSASVKGRFTISRQDAKNSLYLEMKDLGGGDTAVYYCLRDVHGFDVWGQGTTVTVSS", "VL": "DVVMTQSPLSLPVTPGEPASISCRSSQSLLYSNGYTYLDWYLQRPGQSPQLLIYMGSNRASGVPDRFSGSGSGTDFTLKISRVEAEDVGVYYCMQALQTPLTFGGGTKLEIKR", "notes": "also called recombinant monoclonal antibody 1D3 (human IgG1 type); Ab-proBDNF (1D3)"}, "B3": {"name": "single-chain antibody 1D3 (scFv)", "scFv": "QVQLVESGGGLIQPGGSMRLSCAASGFSLSGYDMHWVRQIAGKGLEWVAGLGMEGDSYYSASVKGRFTISRQDAKNSLYLEMKDLGGGDTAVYYCLRDVHGFDVWGQGTTVTVSSGGGGSGGGGSGGGGSDVVMTQSPLSLPVTPGEPASISCRSSQSLLYSNGYTYLDWYLQRPGQSPQLLIYMGSNRASGVPDRFSGSGSGTDFTLKISRVEAEDVGVYYCMQALQTPLTFGGGTKLEIKR", "notes": "also called 1D3, scFv; pCantab-1D3"}, "B4": {"name": "2H8 monoclonal antibody (antibody, human IgG4, kappa, V domains shown)", "VH": "EVQLVETGGGLVQPGGSLRLSCAASGFTFSSYGMHWVRQAPGKGLEWVSVISGSGDSTYYAESVKGRFTISRDNARNTVYLQMNSLRAEDTAVYYCASGILTGYVFDYWGKGTMVTVSS", "VL": "DVVMTQSPLSLPVTLGQPASISCRSSQSLVSNDGNTYLNWFQQRPGQPPRRLIYMVSKWDSGVPDRFSGSGSGTDFTLRISRVEAEDVGVYYCMQSTHWPPTFGGGTKLEIKR", "notes": "also called recombinant monoclonal antibody 2H8 (human IgG1 type)"}}, "key": {"BSA": {"biological_target": "T1, BSA (UniProt P02769 25-607)", "T1 construct": "also called negative control protein BSA", "T1 sequence (P02769 25-607 limits assumed)": "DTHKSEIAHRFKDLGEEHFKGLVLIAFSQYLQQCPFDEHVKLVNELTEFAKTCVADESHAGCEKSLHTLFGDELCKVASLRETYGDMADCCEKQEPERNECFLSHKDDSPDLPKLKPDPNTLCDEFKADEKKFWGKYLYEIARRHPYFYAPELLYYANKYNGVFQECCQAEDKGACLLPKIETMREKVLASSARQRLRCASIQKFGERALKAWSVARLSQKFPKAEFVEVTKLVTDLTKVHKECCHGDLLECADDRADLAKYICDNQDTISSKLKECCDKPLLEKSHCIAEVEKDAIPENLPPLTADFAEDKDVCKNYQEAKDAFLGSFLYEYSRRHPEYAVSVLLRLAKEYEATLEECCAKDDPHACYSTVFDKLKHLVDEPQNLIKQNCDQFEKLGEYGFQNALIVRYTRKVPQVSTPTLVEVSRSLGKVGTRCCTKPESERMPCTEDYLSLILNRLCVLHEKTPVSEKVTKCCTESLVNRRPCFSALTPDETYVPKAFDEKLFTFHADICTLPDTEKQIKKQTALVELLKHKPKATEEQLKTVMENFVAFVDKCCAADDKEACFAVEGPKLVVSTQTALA", "experiment": "single-phage ELISA", "experimental": "Ninety-six clones were randomly selected from the fourth round of screening, and single-phage ELISA (enzyme-linked immunosorbent assay) was used to analyze their binding ability to human proBDNF precursors. For this purpose, each single colony was inoculated into 300 μl of 2×YT/ampicillin medium (containing 2% glucose) in a 96-well deep-well culture plate, shaken and cultured at 37° C. and 250 rpm for 16 hours. 20 μl of the culture was inoculated into 500 μl of 2×YT/ampicillin medium (containing 0.1% glucose), and shaken and cultured at 37° C. and 250 rpm for 1.5 hours. For preparing helper phage solution, 75 μl of M13KO7 (titer: 3×10¹² pfu/ml) was taken and mixed into 15 ml of 2×YT medium, added to the culture plate at 50 μl/well, and incubate at 37° C. and 150 rpm for 30 minutes. And then, the prepared kanamycin solution was added at 50 μl/well (180 μl of 50 mg/ml kanamycin was taken and added to 15 ml 2×YT medium), and shaken and cultured at 37° C. and 250 rpm for 16 hours. […]\nTo perform a single phage ELISA, a 96-well MediSorp ELISA plate (purchased from Nunc) was coated with 100 ng/well antigen human proBDNF precursor and negative control protein BSA (100 μl/well) respectively, overnight at 4° C. […] The extinction value was measured at 450 nm using an enzyme-linked immunoassay device (Bio-Rad)."}, "[1]": {"biological_target": "T2, biotinylated LL peptide fragment (human, also: biotinylated (position not given here))", "T2 construct": "Synthesized in vitro; 12 amino acids", "T2 peptide": "LLFLLEEYKNYL", "experiment": "ELISA on biotinylated peptide"}, "[2]": {"biological_target": "T3, biotinylated VP peptide fragment (human, also: biotinylated (position not given here))", "T3 construct": "Synthesized in vitro; 12 amino acids", "T3 peptide": "VMLSSQVPLEPP", "experiment": "ELISA on biotinylated peptide"}, "[3]": {"biological_target": "T2, biotinylated LL peptide fragment", "experiment": "ELISA on biotinylated synthetic peptides (Example 8), single condition, concentrations not given"}, "[4]": {"biological_target": "T4, biotinylated DH peptide fragment (human, also: biotinylated (position not given here))", "T4 construct": "Synthesized in vitro; 12 amino acids; also called polypeptide DH", "T4 peptide": "DAANMSMRVRRH", "experiment": "ELISA on biotinylated synthetic peptides (Example 8), single condition, concentrations not given"}, "[5]": {"biological_target": "T3, biotinylated VP peptide fragment", "experiment": "ELISA on biotinylated synthetic peptides (Example 8), single condition, concentrations not given"}, "GST-huBDNFpro E4 [6]": {"biological_target": "T5, GST-huBDNFpro E4", "T5 construct": "also called GST-huBDNFpro-E4 peptide fragment; GST fusion partner and any linker between GST and the peptide not given", "T5 chain": "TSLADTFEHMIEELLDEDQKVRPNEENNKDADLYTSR", "experiment": "ELISA on GST fusion proteins (Example 7), single condition"}, "GST-huBDNFpro E1 [7]": {"biological_target": "T6, GST-huBDNFpro E1", "T6 construct": "also called GST-huBDNFpro-E1 peptide fragment; GST fusion partner and any linker between GST and the peptide not given", "T6 chain": "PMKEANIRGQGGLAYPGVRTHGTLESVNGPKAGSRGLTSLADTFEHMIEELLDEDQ", "experiment": "ELISA on GST fusion proteins (Example 7), single condition"}, "GST-huBDNFpro E4 [8]": {"biological_target": "T5, GST-huBDNFpro E4", "experiment": "ELISA on GST fusion proteins (Example 7), single condition, concentrations not given"}, "[9]": {"biological_target": "T7, full length GST-huBDNFpro (human, UniProt P23560 20-129)", "T7 construct": "GST is placed at the N-terminus by the printed name only; not shown: Glutathione S-transferase (GST) fusion partner", "T7 chain": "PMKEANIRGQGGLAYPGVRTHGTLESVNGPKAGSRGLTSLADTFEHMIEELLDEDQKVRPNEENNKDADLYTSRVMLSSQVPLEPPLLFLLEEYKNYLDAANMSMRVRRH", "experiment": "ELISA on GST fusion proteins (Example 7), single condition, concentrations not given"}, "GST-huBDNFpro E1 [10]": {"biological_target": "T6, GST-huBDNFpro E1", "experiment": "ELISA on GST fusion proteins (Example 7), single condition, concentrations not given"}, "GST-GPC3": {"biological_target": "T8, GST-GPC3", "T8 construct": "fusion tag; It appears to be the negative control antigen", "experiment": "ELISA on GST fusion proteins (Example 7), single condition, concentrations not given"}, "[11]": {"biological_target": "T9, GST-huBDNFpro-E5 peptide fragment (human)", "T9 construct": "the text speaks of 36 amino acids; also called polypeptide E5; not shown: Glutathione S-transferase (GST) fusion partner", "T9 chain": "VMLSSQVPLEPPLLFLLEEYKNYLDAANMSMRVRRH", "experiment": "ELISA on GST fusion proteins (Example 7), single condition, concentrations not given"}, "GST-huBDNFpro E3": {"biological_target": "T10, GST-huBDNFpro E3", "T10 construct": "fusion tag; also called GST-huBDNFpro-E3 peptide fragment", "experiment": "ELISA on GST fusion proteins (Example 7), single condition, concentrations not given"}, "[12]": {"biological_target": "T11, GST-huBDNFpro-E2 peptide fragment (human, UniProt O18755 76-129 (Procyon lotor entry))", "T11 construct": "also called polypeptide E2; not shown: Glutathione S-transferase (GST) fusion partner", "T11 sequence": "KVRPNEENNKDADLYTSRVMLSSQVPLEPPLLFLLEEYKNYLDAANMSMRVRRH", "experiment": "ELISA on GST fusion proteins (Example 7), single condition, concentrations not given"}, "[13]": {"biological_target": "T12, human proBDNF precursor protein (human, UniProt P23560 19-247)", "T12 construct": "also called human proBDNF precursor recombinant protein", "T12 sequence (looked up)": "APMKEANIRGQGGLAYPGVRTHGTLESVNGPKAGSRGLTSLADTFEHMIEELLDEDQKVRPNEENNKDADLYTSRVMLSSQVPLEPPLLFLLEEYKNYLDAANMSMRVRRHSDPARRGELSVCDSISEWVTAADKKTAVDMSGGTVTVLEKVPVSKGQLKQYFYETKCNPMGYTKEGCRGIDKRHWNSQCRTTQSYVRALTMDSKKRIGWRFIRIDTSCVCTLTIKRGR", "experiment": "SPR, Biacore T200, capture method, antigen 0.25-8 nM", "experimental": "The affinity and kinetic parameters of the 1D3 and 2H8 monoclonal antibodies were measured by the capture method using Biacore T200 system (purchased from GE), respectively. The system was manipulated according to the instructions, human proBDNF precursor protein was used at a concentration of 0.25 nM, 0.5 nM, 1 nM, 2 nM, 4 nM, and 8 nM, respectively. The Biacore T200 evaluation software was used to evaluate the resulting action curve and calculate the affinity KD value."}}, "note": "Ends that are not written are not given here."}
{"binder": "B1", "values": [{"measurement": "binding result", "setting": "BSA", "result": "no binding (tested: 100 ng/well coated)"}]}
{"binder": "B2", "values": [{"measurement": "binding result", "setting": "[1]", "result": "no binding"}, {"measurement": "binding result", "setting": "[2]", "result": "no binding"}, {"measurement": "OD450nM", "setting": "[3]", "result": 0.0167}, {"measurement": "OD450nM", "setting": "[4]", "result": 1.7}, {"measurement": "OD450nM", "setting": "[5]", "result": 0.0122}, {"measurement": "binding result", "setting": "GST-huBDNFpro E4 [6]", "result": "no binding"}, {"measurement": "binding result", "setting": "GST-huBDNFpro E1 [7]", "result": "no binding"}, {"measurement": "OD450nM", "setting": "GST-huBDNFpro E4 [8]", "result": 0.0081}, {"measurement": "OD450nM", "setting": "[9]", "result": 0.625}, {"measurement": "OD450nM", "setting": "GST-huBDNFpro E1 [10]", "result": 0.0114}, {"measurement": "OD450nM", "setting": "GST-GPC3", "result": 0.0577}, {"measurement": "OD450nM", "setting": "[11]", "result": 0.979}, {"measurement": "OD450nM", "setting": "GST-huBDNFpro E3", "result": 0.0245}, {"measurement": "OD450nM", "setting": "[12]", "result": 0.914}]}
{"binder": "B3", "values": [{"measurement": "binding result", "setting": "BSA", "result": "no binding (tested: 100 ng/well coated)"}]}
{"binder": "B4", "values": [{"measurement": "Kd", "setting": "[13]", "result": 1.91, "unit": "nM"}, {"measurement": "koff", "setting": "[13]", "result": 0.00594, "unit": "s⁻¹"}, {"measurement": "kon", "setting": "[13]", "result": "3.1e+06", "unit": "M⁻¹ s⁻¹"}, {"measurement": "binding result", "setting": "[1]", "result": "no binding"}, {"measurement": "binding result", "setting": "[2]", "result": "no binding"}, {"measurement": "OD450nM", "setting": "[3]", "result": 0.0115}, {"measurement": "OD450nM", "setting": "[4]", "result": 0.831}, {"measurement": "OD450nM", "setting": "[5]", "result": 0.0104}, {"measurement": "binding result", "setting": "GST-huBDNFpro E4 [6]", "result": "no binding"}, {"measurement": "binding result", "setting": "GST-huBDNFpro E1 [7]", "result": "no binding"}, {"measurement": "OD450nM", "setting": "GST-huBDNFpro E4 [8]", "result": 0.0089}, {"measurement": "OD450nM", "setting": "[9]", "result": 0.758}, {"measurement": "OD450nM", "setting": "GST-huBDNFpro E1 [10]", "result": 0.015}, {"measurement": "OD450nM", "setting": "GST-GPC3", "result": 0.05}, {"measurement": "OD450nM", "setting": "[11]", "result": 1.06}, {"measurement": "OD450nM", "setting": "GST-huBDNFpro E3", "result": 0.0144}, {"measurement": "OD450nM", "setting": "[12]", "result": 0.962}]}
